Patent US20150218594A1, “CELL-FREE AND MINIMIZED METABOLIC REACTION CASCADES FOR THE PRODUCTION OF CHEMICALS” (CLARIANT PRODUKTE (DEUTSCHLAND) GMBH, priority 2012, published 2015)
Like-named read-outs stand apart in the source and are kept apart here.

B1: KDC: Branched-chain-2-oxo acid decarboxylase KDC (EC 4.1.1.72), Lactococcus lactis, Seq ID 16 (protein)
chain: MGSSHHHHHHSSGLVPRGSHMASMYTVGDYLLDRLHELGIEEIFGVPGDYNLQFLDQIISREDMKWIGNANELNASYMADGYARTKKAAAFLTTFGVGELSAINGLAGSYAENLPVVEIVGSPTSKVQNDGKFVHHTLADGDFKHFMKMHEPVTAARTLLTAENATYEIDRVLSQLLKERKPVYINLPVDVAAAKAEKPALSLEKESSTTNTTEQVILSKIEESLKNAQKPVVIAGHEVISFGLEKTVTQFVSETKLPITTLNFGKSAVDESLPSFLGIYNGKLSEISLKNFVESADFILMLGVKLTDSSTGAFTHHLDENKMISLNIDEGIIFNKVVEDFDFRAVVSSLSELKGIEYEGQYIDKQYEEFIPSSAPLSQDRLWQAVESLTQSNETIVAEQGTSFFGASTIFLKSNSRFIGQPLWGSIGYTFPAALGSQIADKESRHLLFIGDGSLQLTVQELGLSIREKLNPICFIINNDGYTVEREIHGPTQSYNDIPMWNYSKLPETFGATEDRVVSKIVRTENEFVSVMKEAQADVNRMYWIELVLEKEDAPKLLKKMGKLFAEQNK
modifications: Branched-chain ketoacid decarboxylase (EC 4.1.1.72), Lactococcus lactis Protein sequence including N-terminal His-Tag
B2: KARI: Ketol-acid reductoisomerase KARI (EC 1.1.1.86), Meiothermus ruber, Seq ID 14 (protein)
chain: MKIYYDQDADIGFIKDKTVAILGFGSQGHAHALNLRDSGIKVVVGLRPGSRNEEKARKAGLEVLPVGEAVRRADVVMILLPDETQGAVYKAEVEPNLKEGAALAFAHGFNIHFGQIKPRRDLDVWMVAPKGPGHLVRSEYEKGSGVPSLVAVYQDASGSAFPTALAYAKANGGTRAGTIATTFKDETETDLFGEQTVLCGGLTQLIAAGFETLVEAGYPPEMAYFECLHEVKLIVDLIYESGFAGMRYSISNTAEYGDYTRGPMVINREETKARMREVLRQIQQGEFAREWMLENVVGQPTLNANRNYWKDHPIEQVGPKLRAMMPFLKSRFTKEEVGSSGRPVLGSSHHHHHH
modifications: Ketolacid reductoisomerase (EC 1.1.1.86), Meiothermus ruber Protein sequence including C-terminal His-Tag
B3: ALS: Acetolactate synthase ALS (EC 2.2.1.6), Bacillus subtilis, Seq ID 12 (protein, listed as Bacillus subtilis)
chain: MLTKATKEQKSLVKNRGAELVVDCLVEQGVTHVFGIPGAKIDAVFDALQDKGPEIIVARHEQNAAFMAQAVGRLTGKPGVVLVTSGPGASNLATGLLTANTEGDPVVALAGNVIRADRLKRTHQSLDNAALFQPITKYSVEVQDVKNIPEAVTNAFRIASAGQAGAAFVSFPQDVVNEVTNTKNVRAVAAPKLGPAADDAISAAIAKIQTAKLPVVLVGMKGGRPEAIKAVRKLLKKVQLPFVETYQAAGTLSRDLEDQYFGRIGLFRNQPGDLLLEQADVVLTIGYDPIEYDPKFWNINGDRTIIHLDEIIADIDHAYQPDLELIGDIPSTINHIEHDAVKVEFAEREQKILSDLKQYMHEGEQVPADWKSDRAHPLEIVKELRNAVDDHVTVTCDIGSHAIWMSRYFRSYEPLTLMISNGMQTLGVALPWAIGASLVKPGEKVVSVSGDGGFLFSAMELETAVRLKAPIVHIVWNDSTYDMVAFQQLKKYNRTSAVDFGNIDIVKYAESFGATGLRVESPDQLADVLRQGMNAEGPVIIDVPVDYSDNINLASDKLPKEFGELMKTKALL
B4: GDH: Glucose dehydrogenase GDH (EC 1.1.1.47), Sulfolobus solfataricus, NP 344316.1, Seq ID 02 (protein)
chain: MKAIIVKPPNAGVQVKDVDEKKLDSYGKIKIRTIYNGICGTDREIVNGKLTLSTLPKGKDFLVLGHEAIGVVEESYHGFSQGDLVMPVNRRGCGICRNCLVGRPDFCETGEFGEAGIHKMDGFMREWWYDDPKYLVKIPKSIEDIGILAQPLADIEKSIEEILEVQKRVPVWTCDDGTLNCRKVLVVGTGPIGVLFTLLFRTYGLEVWMANRREPTEVEQTVIEETKTNYYNSSNGYDKLKDSVGKFDVIIDATGADVNILGNVIPLLGRNGVLGLFGFSTSGSVPLDYKTLQEIVHTNKTIIGLVNGQKPHFQQAVVHLASWKTLYPKAAKMLITKTVSINDEKELLKVLREKEHGEIKIRILWESGRPVLGSSHHHHHH
modifications: Glucose dehydrogenase (EC 1.1.1.47), Sulfolobus solfataricus Protein sequence including C-terminal His-Tag

Legend:
[1] = KDC activity (decarboxylation of 2-ketoisovalerate); type: biochemical; conditions: natural substrate
Procedure: (§1) (J. Mol. Catal. B-Enzym. 2009, 61, 30-35).
KDC activity: KDC activity was assayed by following the decarboxylation of 2-ketoisovalerate to isobutyraldehyde at 50° C. and 340 nm. Assay mixture contained 50 mM HEPES (pH 7), 0.1 mM thiamine-pyrophosphate, 2.5 mM MgCl2 and 60 mM 2-ketoisovalerate. Decarboxylation rate was calculated using the molar extinction coefficient of 2-ketoisovalerate (s=0.017 L mmol-1 cm-1). (J. Mol. Catal. B-Enzym. 2009, 61, 30-35)

[2] = Isobutanol tolerance of enzymes (I50); type: biochemical
[3] = Table 2, value with literature reference; cited from earlier work
[4] = Enzyme half-life at 50° C.
[5] = KARI activity (NADH consumption, acetolactate to 2,3-dihydroxy isovalerate); type: biochemical; conditions: natural substrate
Procedure: as §1
KARL activity: KARI activity was assayed by following the NADH consumption connected to the conversion of acetolactate to 2,3-dihydroxy isovalerate at 50° C. Assay mixture contained 5 mM acetolactate, 0.3 mM NADH, 10 mM MgCl2 and 50 mM HEPES, pH 7.

[6] = Enzyme temperature optimum; type: biochemical
[7] = ALS activity (pyruvate consumption); type: biochemical; conditions: natural substrate
Procedure: as §1
ALS activity: ALS activity was determined by following pyruvate consumption at 50° C. Reaction mixtures contained 25 mM HEPES (pH 7), 0.1 mM thiamine-pyrophosphate, 2.5 mM MgCl2, 15 mM sodium pyruvate. Pyruvate concentration in the samples was determined via lactate dehydrogenase as described elsewhere. (Biochem. J. 2007, 403, 421-430)

[8] = GDH activity assay (oxidation of D-glucose to gluconate, NAD reduction); type: biochemical; conditions: natural substrate
Procedure: as §1
GDH activity: GDH activity was assayed at 50° C. by oxidizing D-glucose to gluconate, whereby the coenzyme NAD is reduced to NADH. Assay mixture contained 50 mM HEPES (pH 7), 2 mM NAD and 50 mM D-glucose. (J. Biol. Chem. 2006, 281, 14796-14804)

[9] = Ethanol tolerance of enzymes (E50); type: biochemical; conditions: 45° C.

| T-Optimum ([6]; Table 2) [°C] | T-Optimum ([6]; Table 1) | Molecule | Activity, 50° C. [1] [U/mg] | I50: Isobutanol concentration which causes loss of 50% activity ([2]; 45° C.) | T-Optimum [3] | Half-life, 50° C. [4] [h] | Activity, 50° C. [5] [U/mg] | I50: Isobutanol concentration which causes loss of 50% activity ([2]; 40° C.) | Activity, 50° C. [7] [U/mg] | I50: Isobutanol concentration which causes loss of 50% activity ([2]; 50° C.) | Activity, 50° C. [8] [U/mg] | E50: Ethanol concentration which causes loss of 50% activity [9] |
| --- | --- | --- | --- | --- | --- | --- | --- | --- | --- | --- | --- | --- |
|  |  | B1 | 150 | 4 (45° C.) % v/v | 50^[5] ° C. | >24 |  |  |  |  |  |  |
| 55 |  | B2 |  |  |  | 34 | 0.7 | 8 (40° C.) % v/v |  |  |  |  |
|  |  | B3 |  |  | 37^[4] ° C. | 12 |  |  | 30 | 4 (50° C.) % v/v |  |  |
| 70 | 70 50 °C | B4 |  | 9 (45° C.) % v/v |  |  |  |  |  |  | 15 | 30 (45° C.) % v/v |
